This note sets out measurements from paper PMC11933459 (Nature Communications, 2025).

Changes are numbered by the printed parent chain. Names and notes keep the numbering of the source.

Data set [1] deals with the molecule itself. As to the kind of experiment: cryo-EM structure.
Data set [2] concerns the molecule itself. Briefly: cryo-EM structure. This is another data set of the same source.

B1: Full-length human XPR1 (wild type), purified, tags removed (natural protein, UniProt Q9UBH6 1-696, looked up)
chain: MKFAEHLSAHITPEWRKQYIQYEAFKDMLYSAQDQAPSVEVTDEDTVKRYFAKFEEKFFQTCEKELAKINTFYSEKLAEAQRRFATLQNELQSSLDAQKESTGVTTLRQRRKPVFHLSHEERVQHRNIKDLKLAFSEFYLSLILLQNYQNLNFTGFRKILKKHDKILETSRGADWRVAHVEVAPFYTCKKINQLISETEAVVTNELEDGDRQKAMKRLRVPPLGAAQPAPAWTTFRVGLFCGIFIVLNITLVLAAVFKLETDRSIWPLIRIYRGGFLLIEFLFLLGINTYGWRQAGVNHVLIFELNPRSNLSHQHLFEIAGFLGILWCLSLLACFFAPISVIPTYVYPLALYGFMVFFLINPTKTFYYKSRFWLLKLLFRVFTAPFHKVGFADFWLADQLNSLSVILMDLEYMICFYSLELKWDESKGLLPNNSEESGICHKYTYGVRAIVQCIPAWLRFIQCLRRYRDTKRAFPHLVNAGKYSTTFFMVTFAALYSTHKERGHSDTMVFFYLWIVFYIISSCYTLIWDLKMDWGLFDKNAGENTFLREEIVYPQKAYYYCAIIEDVILRFAWTIQISITSTTLLPHSGDIIATVFAPLEVFRRFVWNFFRLENEHLNNCGEFRAVRDISVAPLNADDQTLLEQMMDQDDGVRNRQKNRSWKYNQSISLRRPRLASQSKARDTKVLIEDTDDEANT
For orientation: stoichiometry N means a count of units in the complex or per binding partner. Regarding B1, the “stoichiometry N” value in “cryo-EM structure [1]” is 2.

B2: XPR1-E622A/F623A mutant (full-length human XPR1), purified, tags removed (natural protein, UniProt Q9UBH6 1-696, looked up)
chain: B1 chain with E622A, F623A
For B2, in “cryo-EM structure [2]”, the binding result is on record as “binds”.
